US20170082633A1 (WHITEHEAD INSTITUTE FOR BIOMEDICAL RESEARCH, published 2017)

Key:
[1] = biological target: endogenous Ragulator (UniProt Q6IAA8 2-161; Q9Y2Q5 1-125; Q9UHA4 1-124; Q0VGL1 1-99; O43504 1-91); experiment: co-immunoprecipitation from HEK-293T cells, immunoblot
Description: (§1) Transfection mixes were taken up to a total of 5 μg of DNA using empty pRK5. HEK-293T cells stably expressing FLAG-tagged proteins were rinsed once with ice-cold PBS and lysed in ice-cold lysis buffer (40 mM HEPES pH 7.4, 1% Triton X-100, 10 mM β-glycerol phosphate, 10 mM pyrophosphate, 2.5 mM MgC12 and 1 tablet of EDTA-free protease inhibitor (Roche) per 25 ml buffer). The soluble fractions from cell lysates were isolated by centrifugation at 13,000 rpm for 10 min in a microcentrifuge. […] Immunoprecipitates were washed three times with lysis buffer containing 500 mM NaCl. Immunoprecipitated proteins were denatured by the addition of 50 μL of sample buffer and incubation at RT for 30 min. It is critical that the samples containing SLC38A9 are neither boiled nor frozen prior to resolution by SDS-PAGE and analysis by immunoblotting. A similar protocol was employed when preparing samples for mass spectrometry.

[2] = biological target: co-expressed epitope tagged Ragulator proteins (UniProt Q6IAA8 2-161; Q9Y2Q5 1-125; Q9UHA4 1-124; Q0VGL1 1-99; O43504 1-91); experiment: as above
Description: as §1

[3] = biological target: T1, endogenous RagC (UniProt Q9HB90 2-399); experiment: FLAG IP from transfected HEK-293T cells, immunoblot
T1 construct: Detected by immunoblot in anti-FLAG immunoprecipitates; also called RagC GTPase
T1 sequence (Q9HB90 2-399 limits assumed): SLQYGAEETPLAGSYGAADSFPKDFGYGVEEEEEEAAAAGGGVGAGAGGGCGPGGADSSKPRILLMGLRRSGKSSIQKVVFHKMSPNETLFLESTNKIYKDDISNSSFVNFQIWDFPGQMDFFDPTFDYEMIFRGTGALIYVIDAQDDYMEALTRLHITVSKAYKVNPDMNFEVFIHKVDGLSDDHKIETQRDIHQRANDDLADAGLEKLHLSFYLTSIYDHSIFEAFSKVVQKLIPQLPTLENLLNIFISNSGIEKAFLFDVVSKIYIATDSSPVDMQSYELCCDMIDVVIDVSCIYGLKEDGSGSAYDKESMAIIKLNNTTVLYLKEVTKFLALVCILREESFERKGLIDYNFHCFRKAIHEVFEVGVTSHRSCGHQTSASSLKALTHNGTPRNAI
Description: (§2) HEK-293T cells were cultured in DMEM supplemented with 10% inactivated fetal bovine serum, penicillin (100 IU/mL), and streptomycin (100 μg/mL) and maintained at 37° C. and 5% CO₂. Two million HEK-293T cells were plated in 10 cm culture dishes.
as §1

[4] = biological target: T2, endogenous p14 (UniProt Q9Y2Q5 1-125); experiment: as above
T2 construct: Detected by immunoblot in anti-FLAG immunoprecipitates; also called LAMTOR2
Description: as §2, §1

[5] = biological target: T3, endogenous p18 (UniProt Q6IAA8 2-161); experiment: as above
T3 construct: Detected by immunoblot in anti-FLAG immunoprecipitates; also called LAMTOR1
Description: as §2, §1

[6] = biological target: T4, endogenous RagA (UniProt Q7L523 1-313); experiment: as above
T4 construct: Detected by immunoblot in anti-FLAG immunoprecipitates; also called RagA GTPase
T4 sequence (Q7L523 whole entry): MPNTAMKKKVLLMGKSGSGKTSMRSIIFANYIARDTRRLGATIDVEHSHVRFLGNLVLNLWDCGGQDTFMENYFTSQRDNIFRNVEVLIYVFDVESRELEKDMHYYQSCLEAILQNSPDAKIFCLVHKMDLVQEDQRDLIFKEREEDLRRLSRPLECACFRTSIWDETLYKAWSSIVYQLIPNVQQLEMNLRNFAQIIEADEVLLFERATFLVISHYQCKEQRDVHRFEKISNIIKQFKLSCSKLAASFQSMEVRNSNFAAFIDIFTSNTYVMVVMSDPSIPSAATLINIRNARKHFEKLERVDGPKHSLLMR
Description: as §2, §1

binding result [1] | binding result [2] | binding result [3] | binding result [4] | binding result [5] | binding result [6] | Binder
no binding | no binding |  |  |  |  | FLAG-SLC38A9.4 (other, also called SLC38A9 isoform 4; isoform 4) DYKDDDDKLVTIFMIWNTMMGTSILSIPWGIKQAGFTTGMCVIILMGLLTLYCCYRVVKSRTMMFSLDTTSWEYPDVCRHYFGSFGQWSSLLFSLVSLIGAMIVYWVLMSNFLFNTGKFIFNFIHHINDTDTILSTNNSNPVICPSAGSGGHPDNSSMIFYANDTGAQQFEKWWDKSRTVPFYLVGLLLPLLNFKSPSFFSKFNILGTVSVLYLIFLVTFKAVRLGFHLEFHWFIPTEFFVPEIRFQFPQLTGVLTLAFFIHNCIITLLKNNKKQENNVRDLCIAYMLVTLTYLYIGVLVFASFPSPPLSKDCIEQNFLDNFPSSDTLSFIARIFLLFQMMTVYPLLGYLARVQLLGHIFGDIYPSIFHVLILNLIIVGAGVIMACFYPNIGGIIRYSGAACGLAFVFIYPSLIYIISLHQEERLTWPKLIFHVFIIILGVANLIVQFFM
 |  | no binding |  |  |  | FLAG-LAMP1 (other, Control lysosomal membrane protein) DYKDDDDKAMFMVKNGNGTACIMANFSAAFSVNYDTKSGPKNMTFDLPSDATVVLNRSSCGKENTSDPSLVIAFGRGHTLTLNFTRNATRYSVQLMSFVYNLSDTHLFPNASSKEIKTVESITDIRADIDKKYRCVSGTQVHMNNVTVTLHDATIQAYLSNSSFSRGETRCEQDRPSPTTAPPAPPSPSPSPVPKSPSVDKYNVSGTNGTCLLASMGLQLNLTYERKDNTTVTRLLNINPNKTSASGSCGAHLVTLELHSEGTTVLLFQFGMNASSSRFFLQGIQLNTILPDARDPAFKAANGSLRALQATVGNSYKCNAEEHVRVTKAFSVNIFKVWVQAFKVEGGQFGSVEECLLDENSMLIPIAVGGALAGLVLIVLIAYLVGRKRSHAGYQTI
 |  | no binding | no binding | no binding | no binding | FLAG-SLC38A9.1 P85A (other, Full-length mutant) single chain: MANMNSDSRHLGTSEVDHERDPGPMNIQFEPSDLRSKRPFCIEPTNIVNVNHVIQRVSDHASAMNKRIHYYSRLTTPADKALIAADHVVPAPEECYVYSPLGSAYKLQSYTEGYGKNTSLVTIFMIWNTMMGTSILSIPWGIKQAGFTTGMCVIILMGLLTLYCCYRVVKSRTMMFSLDTTSWEYPDVCRHYFGSFGQWSSLLFSLVSLIGAMIVYWVLMSNFLFNTGKFIFNFIHHINDTDTILSTNNSNPVICPSAGSGGHPDNSSMIFYANDTGAQQFEKWWDKSRTVPFYLVGLLLPLLNFKSPSFFSKFNILGTVSVLYLIFLVTFKAVRLGFHLEFHWFIPTEFFVPEIRFQFPQLTGVLTLAFFIHNCIITLLKNNKKQENNVRDLCIAYMLVTLTYLYIGVLVFASFPSPPLSKDCIEQNFLDNFPSSDTLSFIARIFLLFQMMTVYPLLGYLARVQLLGHIFGDIYPSIFHVLILNLIIVGAGVIMACFYPNIGGIIRYSGAACGLAFVFIYPSLIYIISLHQEERLTWPKLIFHVFIIILGVANLIVQFFM

Further lines, the binder ahead of its results:

Binder | binding result [1] | binding result [2] | binding result [3] | binding result [4] | binding result [5] | binding result [6]
FLAG-SLC38A9.2 (other, also called SLC38A9 isoform 2; isoform 2) DYKDDDDKMNKRIHYYSRLTTPADKALIAPDHVVPAPEECYVYSPLGSAYKLQSYTEGYGKNTSLVTIFMIWNTMMGTSILSIPWGIKQAGFTTGMCVIILMGLLTLYCCYRVVKSRTMMFSLDTTSWEYPDVCRHYFGSFGQWSSLLFSLVSLIGAMIVYWVLMSNFLFNTGKFIFNFIHHINDTDTILSTNNSNPVICPSAGSGGHPDNSSMIFYANDTGAQQFEKWWDKSRTVPFYLVGLLLPLLNFKSPSFFSKFNILGTVSVLYLIFLVTFKAVRLGFHLEFHWFIPTEFFVPEIRFQFPQLTGVLTLAFFIHNCIITLLKNNKKQENNVRDLCIAYMLVTLTYLYIGVLVFASFPSPPLSKDCIEQNFLDNFPSSDTLSFIARIFLLFQMMTVYPLLGYLARVQLLGHIFGDIYPSIFHVLILNLIIVGAGVIMACFYPNIGGIIRYSGAACGLAFVFIYPSLIYIISLHQEERLTWPKLIFHVFIIILGVANLIVQFFM | no binding | no binding |  |  |  | 
FLAG-SLC38A9.1 Δ110 (other, also called SLC38A9 Δ110) DYKDDDDKTEGYGKNTSLVTIFMIWNTMMGTSILSIPWGIKQAGFTTGMCVIILMGLLTLYCCYRVVKSRTMMFSLDTTSWEYPDVCRHYFGSFGQWSSLLFSLVSLIGAMIVYWVLMSNFLFNTGKFIFNFIHHINDTDTILSTNNSNPVICPSAGSGGHPDNSSMIFYANDTGAQQFEKWWDKSRTVPFYLVGLLLPLLNFKSPSFFSKFNILGTVSVLYLIFLVTFKAVRLGFHLEFHWFIPTEFFVPEIRFQFPQLTGVLTLAFFIHNCIITLLKNNKKQENNVRDLCIAYMLVTLTYLYIGVLVFASFPSPPLSKDCIEQNFLDNFPSSDTLSFIARIFLLFQMMTVYPLLGYLARVQLLGHIFGDIYPSIFHVLILNLIIVGAGVIMACFYPNIGGIIRYSGAACGLAFVFIYPSLIYIISLHQEERLTWPKLIFHVFIIILGVANLIVQFFM | no binding | no binding |  |  |  | 
FLAG-SLC38A9.1 L74A (other) single chain: MANMNSDSRHLGTSEVDHERDPGPMNIQFEPSDLRSKRPFCIEPTNIVNVNHVIQRVSDHASAMNKRIHYYSRATTPADKALIAPDHVVPAPEECYVYSPLGSAYKLQSYTEGYGKNTSLVTIFMIWNTMMGTSILSIPWGIKQAGFTTGMCVIILMGLLTLYCCYRVVKSRTMMFSLDTTSWEYPDVCRHYFGSFGQWSSLLFSLVSLIGAMIVYWVLMSNFLFNTGKFIFNFIHHINDTDTILSTNNSNPVICPSAGSGGHPDNSSMIFYANDTGAQQFEKWWDKSRTVPFYLVGLLLPLLNFKSPSFFSKFNILGTVSVLYLIFLVTFKAVRLGFHLEFHWFIPTEFFVPEIRFQFPQLTGVLTLAFFIHNCIITLLKNNKKQENNVRDLCIAYMLVTLTYLYIGVLVFASFPSPPLSKDCIEQNFLDNFPSSDTLSFIARIFLLFQMMTVYPLLGYLARVQLLGHIFGDIYPSIFHVLILNLIIVGAGVIMACFYPNIGGIIRYSGAACGLAFVFIYPSLIYIISLHQEERLTWPKLIFHVFIIILGVANLIVQFFM |  |  | no binding | no binding | no binding | no binding
FLAG-SLC38A9.1 P90A (other, Full-length mutant) single chain: MANMNSDSRHLGTSEVDHERDPGPMNIQFEPSDLRSKRPFCIEPTNIVNVNHVIQRVSDHASAMNKRIHYYSRLTTPADKALIAPDHVVAAPEECYVYSPLGSAYKLQSYTEGYGKNTSLVTIFMIWNTMMGTSILSIPWGIKQAGFTTGMCVIILMGLLTLYCCYRVVKSRTMMFSLDTTSWEYPDVCRHYFGSFGQWSSLLFSLVSLIGAMIVYWVLMSNFLFNTGKFIFNFIHHINDTDTILSTNNSNPVICPSAGSGGHPDNSSMIFYANDTGAQQFEKWWDKSRTVPFYLVGLLLPLLNFKSPSFFSKFNILGTVSVLYLIFLVTFKAVRLGFHLEFHWFIPTEFFVPEIRFQFPQLTGVLTLAFFIHNCIITLLKNNKKQENNVRDLCIAYMLVTLTYLYIGVLVFASFPSPPLSKDCIEQNFLDNFPSSDTLSFIARIFLLFQMMTVYPLLGYLARVQLLGHIFGDIYPSIFHVLILNLIIVGAGVIMACFYPNIGGIIRYSGAACGLAFVFIYPSLIYIISLHQEERLTWPKLIFHVFIIILGVANLIVQFFM |  |  | no binding | no binding | no binding | no binding
FLAG-SLC38A9.1 Y71A (other, Full-length mutant) single chain: MANMNSDSRHLGTSEVDHERDPGPMNIQFEPSDLRSKRPFCIEPTNIVNVNHVIQRVSDHASAMNKRIHYASRLTTPADKALIAPDHVVPAPEECYVYSPLGSAYKLQSYTEGYGKNTSLVTIFMIWNTMMGTSILSIPWGIKQAGFTTGMCVIILMGLLTLYCCYRVVKSRTMMFSLDTTSWEYPDVCRHYFGSFGQWSSLLFSLVSLIGAMIVYWVLMSNFLFNTGKFIFNFIHHINDTDTILSTNNSNPVICPSAGSGGHPDNSSMIFYANDTGAQQFEKWWDKSRTVPFYLVGLLLPLLNFKSPSFFSKFNILGTVSVLYLIFLVTFKAVRLGFHLEFHWFIPTEFFVPEIRFQFPQLTGVLTLAFFIHNCIITLLKNNKKQENNVRDLCIAYMLVTLTYLYIGVLVFASFPSPPLSKDCIEQNFLDNFPSSDTLSFIARIFLLFQMMTVYPLLGYLARVQLLGHIFGDIYPSIFHVLILNLIIVGAGVIMACFYPNIGGIIRYSGAACGLAFVFIYPSLIYIISLHQEERLTWPKLIFHVFIIILGVANLIVQFFM |  |  | no binding | no binding | no binding | no binding
